Values of other authors as cited in PMC8019513.
Like-named read-outs stand apart in the source and are kept apart here.

What was measured:
IL-8 (Homo sapiens) [1] = target: IL-8 (Homo sapiens) (UniProt P10145)
IL-8 (Homo sapiens) [2] = target: IL-8 (Homo sapiens) (UniProt P10145); remark: listed apart in the source

IL-8 (Homo sapiens), sequence (P10145 28-99): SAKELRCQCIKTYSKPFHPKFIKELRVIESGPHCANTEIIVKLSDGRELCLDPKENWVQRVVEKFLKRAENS
CXCR1, sequence (P25024 whole entry): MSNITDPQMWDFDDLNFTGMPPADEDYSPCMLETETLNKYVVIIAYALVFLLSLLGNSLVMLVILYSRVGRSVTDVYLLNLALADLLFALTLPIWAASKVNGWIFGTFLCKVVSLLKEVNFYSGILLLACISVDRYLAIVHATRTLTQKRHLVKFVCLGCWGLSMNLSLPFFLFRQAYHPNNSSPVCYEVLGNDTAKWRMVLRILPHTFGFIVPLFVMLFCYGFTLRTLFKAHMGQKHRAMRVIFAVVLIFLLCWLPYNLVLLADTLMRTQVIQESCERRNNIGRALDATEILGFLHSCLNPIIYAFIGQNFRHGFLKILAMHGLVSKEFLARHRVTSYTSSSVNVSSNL
CXCR2, sequence (P25025 whole entry): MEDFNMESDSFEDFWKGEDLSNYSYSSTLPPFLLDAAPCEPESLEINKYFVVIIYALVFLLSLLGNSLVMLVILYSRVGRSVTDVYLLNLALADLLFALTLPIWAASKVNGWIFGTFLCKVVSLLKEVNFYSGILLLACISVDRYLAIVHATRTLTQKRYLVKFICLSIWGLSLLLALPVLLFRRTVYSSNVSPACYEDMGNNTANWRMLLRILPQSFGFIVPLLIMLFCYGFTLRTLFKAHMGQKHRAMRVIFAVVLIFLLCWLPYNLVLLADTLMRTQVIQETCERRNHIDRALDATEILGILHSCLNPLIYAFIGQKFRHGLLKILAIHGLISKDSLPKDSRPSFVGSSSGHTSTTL

Row | Kd (IL-8 (Homo sapiens) [1]) [nM] | Kd (IL-8 (Homo sapiens) [2]) [nM] | Substance
1 | 4 | – | CXCR1 (from UniProt P25024)
2 | – | 4 | CXCR2 (from UniProt P25025)
